From patent publication US20220073646A1 (Hoffmann-La Roche, published 2022)
Where a chain is given by its changes, count along the chain named. Numbers in names are those of the source. Like-named read-outs stand apart in the source and are kept apart here.

How the values were obtained:
human OX40 on cells [1] = biological target: T1, human OX40 on cells (human, UniProt P43489 29-277); experiment: cell-based or functional assay
T1 sequence: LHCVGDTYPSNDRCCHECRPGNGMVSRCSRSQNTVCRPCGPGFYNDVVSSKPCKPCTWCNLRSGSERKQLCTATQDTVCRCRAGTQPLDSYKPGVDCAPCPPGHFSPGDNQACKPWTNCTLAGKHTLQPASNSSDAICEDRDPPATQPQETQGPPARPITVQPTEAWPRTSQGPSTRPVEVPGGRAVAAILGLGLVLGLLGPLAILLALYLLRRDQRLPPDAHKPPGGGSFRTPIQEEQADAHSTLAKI

human OX40 on cells [2] = biological target: T1, human OX40 on cells; experiment: cell-based or functional assay; remark: listed apart in the source
[3] = biological target: T2, human fibroblast activation protein (huFAP) on cells (human, UniProt Q12884 1-760); experiment: flow cytometry, WM266-4 cells
T2 construct: also called NIH/3T3-huFAP clone 39; NIH/3T3-huFAP clone 19

[4] = biological target: T3, recombinant human OX40 His (human); experiment: SPR, captured IgG, OX40 His analyte
T3 construct: ectodomain with avi and hexahistidine tag; also called human Ox40 avi His
T3 chain: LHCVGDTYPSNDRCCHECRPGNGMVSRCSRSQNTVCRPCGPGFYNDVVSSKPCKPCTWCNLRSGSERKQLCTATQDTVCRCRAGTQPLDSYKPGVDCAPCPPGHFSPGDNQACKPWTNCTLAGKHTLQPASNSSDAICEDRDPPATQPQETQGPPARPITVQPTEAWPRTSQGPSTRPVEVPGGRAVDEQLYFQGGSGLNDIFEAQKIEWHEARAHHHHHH
Experimental: (§1) All SPR experiments were performed on a Biacore T200 at 25° C. with HBS-EP as running buffer (0.01 M HEPES pH 7.4, 0.15 M NaCl, 3 mM EDTA, 0.005% Surfactant P20, Biacore, Freiburg/Germany).
Setup 2) Anti-human Fc antibody (Biacore, Freiburg/Germany) was directly coupled on a CM5 chip at pH 5.0 using the standard amine coupling kit (Biacore, Freiburg/Germany). The immobilization level was approximately 8000 RU. […] The dissociation was monitored for 120 seconds. Bulk refractive index differences were corrected for by subtracting the response obtained on reference flow cell.

[5] = biological target: T4, recombinant human OX40 Fc(kih) (human, UniProt P0DOX5 223-449 = IgG part, biotin on C-terminal Avi tag where used biotinylated); experiment: SPR, captured IgG, OX40 Fc(kih) analyte
T4 construct: antigen Fc knob chain plus Fc hole chain; also called monomeric human OX40 antigen Fc(kih) fusion; biotinylated human OX40
Experimental: as §1
Setup 1) Anti-human Fab antibody (Biacore, Freiburg/Germany) was directly coupled on a CM5 chip at pH 5.0 using the standard amine coupling kit (Biacore, Freiburg/Germany). The immobilization level was approximately 9000 RU. […] The dissociation was monitored for 120 seconds. Bulk refractive index differences were corrected for by subtracting the response obtained on reference flow cell.

human OX40 on cells [6] = biological target: T1, human OX40 on cells; experiment: flow cytometry, activated human CD4 T cells
Experimental: Plates were centrifuged 4 minutes with 400×g and at 4° C. and supernatant was flicked off. Cell were washed once with 200 μL 4° C. cold FACS buffer (DPBS supplied with 2% FBS, 5 mM EDTA pH8 (Amresco, Cat. No. E177) and 7.5 mM Sodium azide (Sigma-Aldrich S2002)). […] Plates were washed four times with 200 μL/well 4° C. FACS buffer to remove unbound construct.
Plates where washed twice with 200 μL/well 4° C.

human OX40 on cells [7] = biological target: T1, human OX40 on cells; experiment: flow cytometry, activated human CD4 T cells; remark: listed apart in the source
[8] = biological target: recombinant cynomolgus OX40 Fc(kih) (cynomolgus, UniProt P0DOX5 223-449 = IgG part, biotin on C-terminal Avi tag where used biotinylated); experiment: SPR, captured IgG, cyno OX40 Fc(kih) analyte
Experimental: as §1
Anti-human Fab antibody (Biacore, Freiburg/Germany) was directly coupled on a CM5 chip at pH 5.0 using the standard amine coupling kit (Biacore, Freiburg/Germany). The immobilization level was approximately 9000 RU. […] The dissociation was monitored for 120 seconds. Bulk refractive index differences were corrected for by subtracting the response obtained on reference flow cell.

[9] = biological target: T5, cynomolgus OX40 on activated cynomolgus PBMC (cynomolgus, UniProt P43489 29-214 (human entry)); experiment: flow cytometry, activated cynomolgus CD4 T cells
T5 construct: whole, on cells
T5 chain: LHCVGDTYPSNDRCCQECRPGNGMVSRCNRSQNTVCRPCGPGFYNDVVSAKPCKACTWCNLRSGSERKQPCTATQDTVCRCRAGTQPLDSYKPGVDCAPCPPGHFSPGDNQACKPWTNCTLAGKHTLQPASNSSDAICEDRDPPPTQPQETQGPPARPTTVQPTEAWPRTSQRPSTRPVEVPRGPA
Experimental: Then, plates were washed four times with 200 μL/well 4° C. FACS buffer. […] Plates where washed twice with 200 μL/well 4° C.

[10] = biological target: T6, huOX40-SNAP fusion on Hek293 EBNA cells (human, UniProt P43489 29-277, labeled with the FRET donor Terbium); experiment: cell FRET competition against d2-labeled (49B4) IgG
T6 construct: not shown: SNAP tag
T6 sequence: T1 sequence

[11] = biological target: T7, human FAP (His-tagged ectodomain) (human, UniProt Q12884 27-760); experiment: SPR, FAP captured via anti-His, 1:1 fit
T7 construct: SPR texts say 'human FAP' or 'His-tagged ... dimeric FAP'; also called hu FAP; human FAP (analyte 2)
Experimental: (§2) The capacity of the bispecific constructs to bind human, murine and cynomolgus FAP was assessed by surface plasmon resonance (SPR). All SPR experiments were performed on a Biacore T200 (Biacore) at 25° C. with HBS-EP as running buffer (0.01 M HEPES pH 7.4, 0.15 M NaCl, 3 mM EDTA, 0.005% Surfactant P20, (Biacore).
(§3) Immobilization levels for the anti-His antibody of up to 18000 resonance units (RU) were used.
(§4) Following the capture step, the bispecific constructs as well as control molecules were immediately passed over the chip surface at a concentration ranging from 0.006-100 nM with a flow rate of 30 μL/minute for 280 s and a dissociation phase of 180 s. Bulk refractive index differences were corrected for by subtracting the response obtained in a reference flow cell, where no FAP was immobilized. Affinity was determined using the Langmuir 1:1 curve fitting. For bivalent binding the same 1:1 fitting was used leading to an apparent KD value.

[12] = biological target: T8, murine FAP (His-tagged ectodomain) (mouse, UniProt P97321 27-761); experiment: SPR, FAP captured via anti-His, 1:1 fit
T8 construct: also called mu FAP
Experimental: as §2, §3, §4

[13] = biological target: T9, cynomolgus FAP (His-tagged ectodomain) (cynomolgus, UniProt Q12884 27-760 (human entry)); experiment: SPR, FAP captured via anti-His, 1:1 fit
T9 construct: also called cynoFAP
Experimental: as §2, §3, §4

[14] = biological target: T10, recombinant murine GITR Fc(kih) (murine, UniProt P0DOX5 223-449 = IgG part, biotin on C-terminal Avi tag); experiment: SPR Biacore T200
T10 construct: also called mu GITR-Fc
Experimental: All SPR experiments were performed on a Biacore T200 at 25° C. with HBS-EP as running buffer (0.01 M HEPES pH 7.4, 0.15 M NaCl, 3 mM EDTA, 0.005% Surfactant P20, Biacore, Freiburg/Germany). In the same experiment, the species selectivity and the avidity of the interaction between the GITR binder (human IgG1 P329GLALA), and recombinant GITR (human, cyno and murine) was determined. […] Immobilization levels up to 100 resonance units (RU) were used.
Anti-GITR human IgG1 P329GLALA antibody was passed at a concentration range from 0.2 to 200 nM (4-fold dilution) with a flow of 30 μL/minute through the flow cells over 120 seconds. Complex dissociation was monitored for 180 seconds. Bulk refractive index differences were corrected for by subtracting the response obtained in a reference flow cell, where no protein was immobilized.

[15] = biological target: T11, recombinant human GITR Fc(kih) (human, UniProt P0DOX5 223-449 = IgG part, biotin on C-terminal Avi tag where used biotinylated); experiment: SPR, captured IgG, GITR Fc(kih) analyte
T11 construct: also called hu GITR-Fc; human monomeric GITR-Fc fusion
Experimental: (§5) In the same experiment, the affinities of the interaction between the GITR antibody (human IgG1 P329GLALA) to recombinant GITR (human and cyno) were determined. Anti-human Fab antibody (Biacore, Freiburg/Germany) was directly coupled on a CM5 chip at pH 5.0 using the standard amine coupling kit (Biacore, Freiburg/Germany). The immobilization level was approximately 7000 RU. The GITR antibody was captured for 90 seconds at 5 nM. […] The dissociation was monitored for 180 seconds. Bulk refractive index differences were corrected for by subtracting the response obtained on reference flow cell.

[16] = biological target: T12, recombinant cynomolgus GITR Fc(kih) (cynomolgus, UniProt P0DOX5 223-449 = IgG part, biotin on C-terminal Avi tag where used biotinylated); experiment: SPR, captured IgG, GITR Fc(kih) analyte
T12 construct: also called cy GITR-Fc
Experimental: as §5

[17] = biological target: T2, human fibroblast activation protein …; experiment: flow cytometry, WM266-4
Experimental: In some assays WM266-4 cells were pre-labeled with PKH-26 Red Fluorescence Cell linker Kit (Sigma, Cat.-No. PKH26GL) as described in Example 2.3.2 to allow separation of these tumor cells from other cells present (e.g. human PBMC).
Plates were centrifuged 4 minutes, 400×g at 4° C. and supernatants were flicked off. Cells were washed once with 200 μL DPBS and pellets were resuspended by a short and gentle vortex. All samples were resuspended in 50 μL/well of 4° C. cold FACS buffer containing the bispecific antigen binding molecules (primary antibody) at the indicated range of concentrations (titrated) and incubated for 120 minutes at 4° C. Afterwards the cells were washed four times with 200 μL 4° C.

human OX40 on cells [18] = biological target: T1, human OX40 on cells; experiment: flow cytometry, activated human CD4 T cells; remark: listed apart in the source
[19] = biological target: T13, recombinant murine 4-1BB Fc(kih) (murine, UniProt P0DOX5 223-449 = IgG part, biotin on C-terminal Avi tag where used biotinylated); experiment: phage display, Fab screening
T13 construct: also called mu4-1BB

[20] = biological target: T7, human FAP (His-tagged ectodomain); experiment: SPR, FAP captured via anti-His, 1:1 fit, apparent KD (bivalent)
Experimental: as §2, §3, §4

[21] = biological target: T8, murine FAP (His-tagged ectodomain); experiment: as above
Experimental: as §2, §3, §4

B1: 49B4 P329GLALA IgG1 (antibody, V domains shown)
VH: QVQLVQSGAEVKKPGSSVKVSCKASGGTFSSYAISWVRQAPGQGLEWMGGIIPIFGTANYAQKFQGRVTITADKSTSTAYMELSSLRSEDTAVYYCAREYYRGPYDYWGQGTTVTVSS
VL: DIQMTQSPSTLSASVGDRVTITCRASQSISSWLAWYQQKPGKAPKLLIYDASSLESGVPSRFSGSGSGTEFTLTISSLQPDDFATYYCQQYSSQPYTFGQGTKVEIKR
notes: anti-OX40; sometimes misprinted 49B9; also called 49B4 IgG1; hu IgG1 (49B4)
In the case of B1, the “EC50 of NFκB activation in HeLa_hOx40_NFκB_luc1 reporter cells with secondary anti-human IgG Fcγ antibody” value (human OX40 on cells [1]) is reported as 2.42 nM, the “EC50 of rescuing suboptimal TCR stimulation with plate-immobilized anti-OX40 binder (preactivated human CD4 T cells)” value (human OX40 on cells [2]) is reported as 0.591 nM and the binding result [3] is reported as “no binding”. For the same binder, the Kd [4] was 460 nM, the koff [4] was 0.67 s⁻¹ and the kon [4] was 1.4e+06 M⁻¹ s⁻¹. For the same binder, the Kd [5] was 510 nM, the koff [5] was 0.13 s⁻¹ and the kon [5] was 250000 M⁻¹ s⁻¹. It also gave an EC50 (human OX40 on cells [6]) of 4.19 nM, an EC50 (human OX40 on cells [7]) of 907 nM and a Kd [8] of 350 nM. The koff [8] was 0.038 s⁻¹, the kon [8] was 110000 M⁻¹ s⁻¹ and the EC50 [9] was 0.05 nM. The EC50 [10] was 12.7 nM.

B2: OX40(49B4)/FAP(4B9) P329GLALA IgG1 1+1 (bispecific antibody, V domains shown)
VH 1: B1 VH
VL 1: DIQMTQSPSTLSASVGDRVTITCRASQSISSWLAWYQQKPGKAPKLLIYDASSLESGVPSRFSGSGSGTEFTLTISSLQPDDFATYYCQQYSSQPYTFGQGTKVEIK
VH 2: EVQLLESGGGLVQPGGSLRLSCAASGFTFSSYAMSWVRQAPGKGLEWVSAIIGSGASTYYADSVKGRFTISRDNSKNTLYLQMNSLRAEDTAVYYCAKGWFGGFNYWGQGTLVTVSS
VL 2: EIVLTQSPGTLSLSPGERATLSCRASQSVTSSYLAWYQQKPGQAPRLLINVGSRRATGIPDRFSGSGSGTDFTLTISRLEPEDFAVYYCQQGIMLPPTFGQGTKVEIK
notes: only variable domains of 49B4 and 4B9; human IgG1 P329G LALA
In the case of B2, the Kd [11] is reported as 0.752 nM, the Kd [12] is reported as 4.79 nM and the Kd [13] is reported as 0.532 nM.

B3: 6C8 P329GLALA IgG1 (antibody, V domains shown)
VH: QVTLRESGPALVKPTQTLTLTCTFSGFSLSTSGMGVGWIRQPPGKALEWLAHIWWDDDKYYQPSLKSRLTISKDTSKNQVVLTMTNMDPVDTATYYCARTRRYFPFAYWGQGTLVTVSS
VL: EIVMTQSPATLSVSPGERATLSCKASQNVGTNVAWYQQKPGQAPRLLIYSASYRYSGIPARFSGSGSGTEFTLTISSLQSEDFAVYYCQQYNTDPLTFGGGTKVEIKR
notes: prepared according to WO 2006/105021; also called benchmark antibody 6C8
For B3, the binding result [14] was “no binding (tested: 0.2 to 200 nM IgG)”, the Kd [15] was 30 nM and the koff [15] was 0.0011 s⁻¹. It also gave a kon [15] of 38000 M⁻¹ s⁻¹, a Kd [16] of 190 nM and a koff [16] of 0.014 s⁻¹. For the same binder, the kon [16] was 73000 M⁻¹ s⁻¹.

B4: 8H9/FAP P329GLALA IgG1 2+2 (bispecific antibody)
heavy: not shown
light 1: not shown
light 2: EIVLTQSPGTLSLSPGERATLSCRASQSVSRSYLAWYQQKPGQAPRLLIIGASTRATGIPDRFSGSGSGTDFTLTISRLEPEDFAVYYCQQGQVIPPTFGQGTKVEIKSSASTKGPSVFPLAPSSKSTSGGTAALGCLVKDYFPEPVTVSWNSGALTSGVHTFPAVLQSSGLYSLSSVVTVPSSSLGTQTYICNVNHKPSNTKVDKKVEPKSCD
notes: also called bispecific bivalent 2+2 construct 8H9; 8H9 FAP 2+2
B4 gave an EC50 [17] of 2.88 nM and an EC50 (human OX40 on cells [18]) of 0.93 nM.

B5: clone 20G2 Fab (Fab, V domains shown)
VH: QVQLVQSGAEVKKPGSSVKVSCKASGGTFSSYAISWVRQAPGQGLEWMGGIIPIFGTANYAQKFQGRVTITADKSTSTAYMELSSLRSEDTAVYYCARSYYWESYPFDYWGQGTTVTVSS
VL: DIQMTQSPSTLSASVGDRVTITCRASQSISSWLAWYQQKPGKAPKLLIYDASSLESGVPSRFSGSGSGTEFTLTISSLQPDDFATYYCQQQHSYYTFGQGTKVEIK
notes: phage library Fab with CH1/CL and tags
B5: binds [19].

B6: 28H1 IgG (antibody, V domains shown)
VH: EVQLLESGGGLVQPGGSLRLSCAASGFTFSSHAMSWVRQAPGKGLEWVSAIWASGEQYYADSVKGRFTISRDNSKNTLYLQMNSLRAEDTAVYYCAKGWLGNFDYWGQGTLVTVSS
VL: B2 VL 2 with T30S, S31R, N50I, V51G, G52A, R54T, I93Q, M94V, L95I
notes: anti-FAP control IgG
With B6 the Kd [20] was 0.933 nM and the Kd [21] was 0.00049 nM.

B7: 8H9 P329GLALA IgG1 (antibody, V domains shown)
VH: QVQLVQSGAEVKKPGSSVKVSCKASGGTFSSYAISWVRQAPGQGLEWMGGIIPIFGTANYAQKFQGRVTITADKSTSTAYMELSSLRSEDTAVYYCAREYGWMDYWGQGTTVTVSS
VL: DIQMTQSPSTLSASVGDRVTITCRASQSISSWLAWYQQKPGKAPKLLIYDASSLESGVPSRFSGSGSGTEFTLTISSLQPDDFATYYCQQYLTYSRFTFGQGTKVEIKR
notes: anti-OX40; also called clone 8H9 hu IgG1
B7 was tested, and the “EC50 of NFκB activation in HeLa_hOx40_NFκB_luc1 reporter cells with secondary anti-human IgG Fcγ antibody” value (human OX40 on cells [1]) was 0.66 nM, the “EC50 of rescuing suboptimal TCR stimulation with plate-immobilized anti-OX40 binder (preactivated human CD4 T cells)” value (human OX40 on cells [2]) was 0.003 nM and the binding result [3] was “no binding”. For the same binder, the Kd [4] was 31 nM, the koff [4] was 0.002 s⁻¹ and the kon [4] was 65000 M⁻¹ s⁻¹. It also gave a Kd [5] of 28 nM, a koff [5] of 0.0045 s⁻¹ and a kon [5] of 160000 M⁻¹ s⁻¹. The EC50 (human OX40 on cells [6]) was 0.59 nM, the EC50 (human OX40 on cells [18]) was 0.59 nM and the Kd [8] was 670 nM. It also gave a koff [8] of 0.096 s⁻¹ and a kon [8] of 140000 M⁻¹ s⁻¹.

B8: 8A06 P329GLALA IgG1 (antibody, V domains shown)
VH: B7 VH with E99G, G101Y, W102A, M103I
VL: SSELTQDPAVSVALGQTVRITCQGDSLRSYYASWYQQKPGQAPVLVIYGKNNRPSGIPDRFSGSSSGNTASLTITGAQAEDEADYYCNSPQTSGSAVFGGGTKLTVLG
notes: also called anti-GITR 8A06 IgG
For B8, the binding result [14] was “no binding (tested: 0.2 to 200 nM IgG)”, the Kd [15] was 29 nM and the Kd [16] was 1200 nM.
